This note sets out measurements from US8795990B2, “Recombinant enzyme with altered feedback sensitivity” (Metabolic Explorer, priority 2004, dated 2014).

This data set has as its system S-adenosylmethionine synthetase. Kind of data set: S-adenosylmethionine synthetase (MAT) activity in vitro in crude extracts, FIA-MS/MS. As to conditions: 10 mM methionine, 10 mM ATP, 37° C., 30 minutes. Type of data set: biochemical, E. coli.

B1: MetK* S273F (protein, UniProt P0A817 2-384, looked up, variant S273F)
S-adenosylmethionine synthase: AKHLFTSESVSEGHPDKIADQISDAVLDAILEQDPKARVACETYVKTGMVLVGGEITTSAWVDIEEITRNTVREIGYVHSDMGFDANSCAVLSAIGKQSPDINQGVDRADPLEQGAGDQGLMFGYATNETDVLMPAPITYAHRLVQRQAEVRKNGTLPWLRPDAKSQVTFQYDDGKIVGIDAVVLSTQHSEEIDQKSLQEAVMEEIIKPILPAEWLTSATKFFINPTGRFVIGGPMGDCGLTGRKIIVDTYGGMARHGGGAFSGKDPSKVDRFAAYAARYVAKNIVAAGLADRCEIQVSYAIGVAEPTSIMVETFGTEKVPSEQLTLLVREFFDLRPYGLIQMLDLLHPIYKETAAYGHFGREHFPWEKTDKAQLLRDAAGLK
In the case of B1, the “MAT (S-adenosylmethionine synthetase activity)” value stood at 2.2 mUI/mg prot.
